Test results taken from paper PMC8178753.

How the values were obtained:
[1] = system: PkKKT2a central domain (551-679) (Perkinsela sp. CCAP 1560/4); assay: fluorescence anisotropy; conditions: fluorescein (6-FAMK) in place of T37 of forward strand; 25 mM Hepes pH 7.5, 50 mM NaCl, 1 mM TCEP; FA: 1 nM FAM-dsDNA, 20 min RT, read at 25°C; EMSA: 200 nM dsDNA, 0.78-30 µM protein, 30 min RT, native PAGE at 4°C
[2] = system: designed zinc finger (Jantz and Berg, 2010) (synthetic construct); assay: fluorescence anisotropy; conditions: fluorescein (6-FAMK) in place of T9 of reverse strand; 25 mM Hepes pH 7.5, 50 mM NaCl, 1 mM TCEP; FA: 1 nM FAM-dsDNA, 20 min RT, read at 25°C; EMSA: 200 nM dsDNA, 0.78-30 µM protein, 30 min RT, native PAGE at 4°C

| Sequence | Kd [1] | Kd [2] |
| --- | --- | --- |
| AGGTAACTAGAAGAATTGTAATATTCTAAATGTTGATCCATTTGAATCAT (double strand) [50 mer 26% GC FAM (BA2216)] | 500 nM | – |
| CGCAGATCCGCGGGGCCCGTGCCGACGCGCGGGCATTGTCCGTGAGGTGA (double strand) [50 mer 74% GC FAM (BA2218)] | 500 nM | – |
| CAATATGTAAGGTGTTTTGGTGTAAAACACGCATTCTTGCATAACATGCA (double strand) [50 mer CEN FAM (BA1674)] | 500 nM | – |
| CGATCGTTGAGGCAGAACCTGATCA (double strand) [designed DNA FAM (BA3083)] | – | 8 nM |
